Results on two substances are retold here after doi:10.1101/2025.01.24.634737.

In assay [1] the target is microtubules grown from purified bovine brain tubulin (bovine) (UniProt Q6B856). Description: optical trap rupture force assay; untreated purified kinetochores on anti-penta-His beads (via Dsn1-6His-3M3DK), attached to the growing tips of coverslip-anchored microtubules; force ramp 0.25 pN/s until detachment; BRB80, 1 mM GTP, 23 °C.
Assay [2] has the same target. As to the kind of experiment: optical trap rupture force assay; kinetochores purified in the presence of benzonase, on anti-penta-His beads (via Dsn1-6His-3M3DK), attached to the growing tips of coverslip-anchored microtubules; force ramp 0.25 pN/s until detachment; BRB80, 1 mM GTP, 23 °C.

Sequence of UniProt Q6B856 (Q6B856 whole entry, looked up): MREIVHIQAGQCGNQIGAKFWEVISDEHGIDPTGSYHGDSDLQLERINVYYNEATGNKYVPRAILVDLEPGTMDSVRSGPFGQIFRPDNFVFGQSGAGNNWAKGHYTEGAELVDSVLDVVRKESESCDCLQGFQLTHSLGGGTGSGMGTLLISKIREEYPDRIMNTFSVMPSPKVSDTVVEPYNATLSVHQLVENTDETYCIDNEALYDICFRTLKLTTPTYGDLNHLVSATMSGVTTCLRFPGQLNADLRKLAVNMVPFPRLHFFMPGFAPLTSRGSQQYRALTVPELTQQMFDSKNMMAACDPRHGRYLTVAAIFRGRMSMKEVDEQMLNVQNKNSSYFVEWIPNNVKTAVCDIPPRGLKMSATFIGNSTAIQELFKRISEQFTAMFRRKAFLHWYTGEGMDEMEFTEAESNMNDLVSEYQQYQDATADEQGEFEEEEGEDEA

Regarding “native S. cerevisiae kinetochore particles purified via Dsn1-6xHis-3xM3DK (from UniProt P40568 1-576) (complex)”, in assay [1], the median rupture force was determined as 7.2.
In the case of “native K. marxianus kinetochore particles purified via Dsn1-6His-3M3DK (from UniProt A0ABX6F0Z3 1-547) (complex)”, the median rupture force in assay [2] came out at 6.4 pN; in assay [1], 7.5 pN.
